The values that follow come from the DeepSol protein solubility set.

A short description of this data set: soluble on expression in E. coli; label from the status in PepcDB or PDB records.
For “MVLLHKSTHIFPTDFASVSRAFFNRYPNPYSPHVLSIDTISRNVDQEGNLRTTRLLKKSGKLPTWVKPFLRGITETWIIEVSVVNPANSTMKTYTRNLDHTGIMKVEEYTTYQFDSATSSTIADSRVKFSSGFNMGIKSKVEDWSRTKFDENVKKSRMGMAFVIQKLEEARNPQF”, the “soluble on expression in E. coli” value is recorded as “not soluble”.
As for “MCLDQVMEGSATVHMAAPPDKIWTLIADVRNTGRFSPETFEAEWLDGATGPALGARFRGHVRRNGIGPVYWTVCEPGREFGFAVLLGDRPVNNWHYRLTPTADGTEVTESFRLPPSVLTTVYYRVFGGWLRQRRNIRDMTKTLQRIKDLVEAG”, the “soluble on expression in E. coli” value is “soluble”.
The same measure for “MGRSSRKDEILQAALACFSEHGVDATTIEMIRDRSGASIGSLYHHFGNKERIHGELYLAGIGQYAALLEAGFARARSAEETVRLLVTSYIDWVVANPDWARFILHSRGRVEAGELGERLRADNQAHFARIHAALAGYRAEGLFREMPDDCFASVVIGPAHDLARQWLAGRTRVALADCRELLAQVAWDSVRAA”: “not soluble”; for “MYVLIGGAGLIGQQLARQVLDQGHTVAVIDQDPQVCKMVRDRLGAMAFEGSAVNTDILLEAGICRADAVAAVLRQDALNLALVTLACHYGVSRIISRISQQDFIEPMRLAGAHHIISTVDLVVSTMVNAIECPQVESMLHFEQGQIEVFKLTLDSQSPVIGRSVAAIAQDRNFPSSSLIIGYQSHPQADLVIPSGNTVLEANATVLLATKPGLVQSLVNFLMPSLFSPLQPAGVLHQLEHHHHHH”: “soluble”.
The same measure for “MSLGQLLSHPIEEKELDYKSYTNLTYCIGSMQGYRMTMEDAHDVKINEHENLAVFGIFDGHGGKNCSQYLAEHLPKLVFTKLNKIASAVYLKQVKDIDLKDVFDILKNSFFKIDKDLSHHANMVNCGSTATVVTIIANYIVVANTGDSRCIVSRNGHAKPLSFDHKPSNMGERVRIENSNGYILNNRINEVLALSRAFGDFKFKLPYLSSSRNKYIKENQKLLGDKLITLPPELFQVTVEPDIMLYDMQKLDSPEFLVIACDGVWDCFKNGQLVKLIRDKLSLGWRLNKIVEYILNDSLTMANNYTGIGFDNMTLIIVAIHKEGHHHHHH”: “soluble”; for “MFENESLSFEEQTIIQAAERYVQQELANEASGHDWWHIYRVTQLAKTIAEKEQANLFLCILTALLHDIGDEKFNESEEAGLLKVQQWLEANNVSTEQTNHILSIIANMSFKGGNTGKTVTTLEGKVVQDADRLDAIGAIGIARVMAYSGNKGRLIHDPHKQPREQLTQEEYRNGEDTAIMHFYEKLLKLKEQMNTNYGRLLAEKRHQFMELYLEEFYQEWDGHR”: “not soluble”; for “MSLDNQPLIVIYDEGAALPKDIVTELNGVAPLVLVINSNEHTRERISYFSRFGHVVDGSDIARAVSELAHLNPAGIVTFSERALRLTATLAKHLNLPFHNLETVYRLTDKYKQRVALQEAGIESIRFYLINTVSDWEQAVEQVCLPAVLKPAYGGGSIDTYLIEDPQTGKSLVEKLLSNKQVGFDGGRSLVLEEFLQGRPSLPFGDYVSVESLVVNGEIKHINVTGKMPLSPPFREYGHIWPSVLSDSEQNQIYALTSSAINVLGVNRGITHTELKLTEQGPRIIEVNGRVGGGINEMAKISLNISLLEMAARLALGKMIDEGHHHHHH”: “not soluble”.
The same measure for “MGSDKIHHHHHHVNELSADVVILGGGLVGMTLAIGLAKAGISSHVVDNSDPAAQTAEGFDGRASAISTASWNLYANLGMADELAPKGCPIEAIAVTDAMKPGRIDFKPGEGDGSLGRMYANRDLRIAMYAAAAREEAITFHTNANVIHRERGEHGVSVTLADGRILKGRLLVGAEGRRSPTRDEAGFTPARWDYGHRAIIAGLTHEKPHGNVAWEVFYPAGPFALLPLLDDEDGSHRSALVWTVAEKDASAVLAMPEPMFLDEVSKRMHEIFGEIRLASPRSSYPLNFHHTARIVEQRLALVGDAAHGMHPIAGQGLNVGLRDVAALVEVLADGVRLGLDVGDAQLLARYERWRAADTFMVATATDVLTRLFGLPGRVPSAIRRLGMAGVQRMGPLKRWFMDEARGMSGDLPKLLRAA”: “not soluble”; for “MGSIWELDFYSRPILDENQKKVWEVVICESPLDIRTKTDSLFRYAQYCPSTEVNSAWLRTAIQEAISKAGKAPIKIRFFRRQMNNMIVKACEDAGIPALPSRRTLALNQWLKQRMEEVYPQEPGYQGVTTPSVRLDSPLPQRLPDALEGQQWVFVSLSAADLAEMPDWEIGFSEAFPLDFVQVSPETRIPGVLIFSPRALPIAGWMSGLELAFLRVDTSQGMRLVLETGATESWILANIKNPTTVQEARGFEEAKQKANGVHFIGVQSNPEAESFAGFWLLQELGVLEHHHHHH”: “not soluble”; for “SLHVTELTAFLVPLPLKREIKHASFTRTESINLLIRCKLSNGTIGWGEGVPRPYVTGETPEGCLQQLSQSNLHPALMQSASNWPEVIAICDALQFNNDSDDSRGCGSNSLRCAVELSLLDAFGRHFGQPVSAVVPHVAEAAEIHVRQPRVRYSTTITSSGAKSERISALKMRAYGFAQCKIKVGVDGQDDPSRVARIRRWIGGGVDLRLDANEAWRPEEVAEKMRPLREFGVTCIEQPVAHDQVDALASLRESIGVPIMLDESLTSRMDAERAIELGTCDLFNLRLSKCGGFLSCLRLAALARASGLGYQLGCHPGESGVLSAAGRHWASSVRDIRYLEGSYDRHLLTTLPTQEDITFRYGGWAPALDSPGLGVTIREDWLRQNAKAERTFVVEAQ”: “soluble”.
As for “SSAEVKVTGQNQEQFLLLAKSAKGAALATLIHQVLEAPGVYVFGELLDMPNVRELAESDFASTFRLLTVFAYGTYADYLAEARNLPPLTEAQKNKLRHLSVVTLAAKVKCIPYAVLLEALALRNVRQLEDLVIEAVYADVLRGSLDQRNQRLEVDYSIGRDIQRQDLSAIARTLQEWCVGCEVVLSGIEEQVSRANQHKEQQLGLKQQIESEVANLKKTIKVTTAAAAAATSQDPEQHLTELREPAPGTNQRQPSKKASKGKGLRGSAKIWSKSN”, the “soluble on expression in E. coli” value is reported as “soluble”.
The entry for “MGSDKIHHHHHHMEKQVATSIFESLSSGLRLDVFRLLVKKGPDGMVAGEIANALDVPPANLSFHLKALSQARLVTVEQEGRFQRYRADIPLMLDLIAYLTDECCTGSPAKCVEKVAASNCAKELLPPPVTHSNESDNMNILFLCTGNSCRSILAEAVFNHLAPTGWKAMSAGSQPTGTVHPRSLALLAREGIDTNGLHSKSWDNLPQVPDVVITVCSNAAGETCPAYLGAVLRAHWGVDDPAHATGTEAEIEAAFTAAYRILRRRIEAFLALPLVELARDRTRLKAELDRIGALSA” is “not soluble”; for “MGSDKIHHHHHHMKVKDLLNITDEDELKKYRVFRALSRFNYFPNQKQAIGELPDCFTTSSLTPEVCLRLLSGGIDNKRKNTGFAPVEYKSTRYNNIPRVLSLVHPVAHAQLCKHIYENWQDIEYISANTISRVRPEFYEVDKRIVVMNYDDPIVKDRKFNDITFGKKYIVNADIASCFDSIYSHSIPWAIKGYEFAKNNRGENEWFNQFDKFLRTTKRCETNGMPIGPATSSICLEIILARVDSRLHDLGFEHERYVDDFCCYCSTKEQADEFIIKLSELLAEYRLSLNLRKTTIIELPIASTDDWIVELNSLCIDRYNADGDLVLIGAKEAINIINKAVFLSQSHKDGSVIKFAVGFLVKKLADTAYQDVFECLLSLSFHYPILIPYLSILLGRGNLEAQHYVDKFQMIIEENALHKRSDGMAWPLHIFREHNIEPTQEIVDRVLETKDCVAITILQDICPDNENIRQFVVDISNDLDIKKDEYWLLLYQSYLLGHINNPYRDRCFIVLKDYGVNFFKTDSRTKFEMRCDNVGAVWAFKELEEIKQPQAKAVNI” it is “not soluble”; for “MANLFKLGAENIFLGRKAATKEEAIRFAGEQLVKGGYVEPEYVQAMLDREKLTPTYLGESIAVPHGTVEAKDRVLKTGVVFCQYPEGVRFGEEEDDIARLVIGIAARNNEHIQVITSLTNALDDESVIERLAHTTSVDEVLELLAGRK” it is “soluble”.
The same measure for “MRILLIEDDMLIGDGIKTGLSKMGFSVDWFTQGRQGKEALYSAPYDAVILDLTLPGMDGRDILREWREKGQREPVLILTARDALAERVEGLRLGADDYLCKPFALIEVAARLEALMRRTNGQASNELRHGNVMLDPGKRIATLAGEPLTLKPKEFALLELLMRNAGRVLSRKLIEEKLYTWDEEVTSNAVEVHVHHLRRKLGSDFIRTVHGIGYTLGEK”: “soluble”.
